Assay results from patent US9657061B2, “Hydrochloride salt of peptide and its use in combination with other peptides for immunotherapy” (Circassia Limited, priority 2012, dated 2017).
Where no end group is shown, it is not given here.

Experiments:
[1] = Stability of salts of MLA01 on storage: levels of three specific impurities (RRT 0.978, 1.072, 1.099); assay type: physicochemical
Protocol: (§1) The stability of MLA01 trifluoroacetate, MLA01 acetate and MLA01 hydrochloride when stored in an inert container over a four week period under different storage conditions was tested. The specific storage conditions evaluated are set out in Table 1.
(§2) Samples of each MLA01 salt were stored in inert glass containers with polypropylene twist-off caps. The samples were stored and removed at various time points for testing according to the schedule in Table 2, where X denotes removal of a sample for testing.
The levels of three specific impurities with relative retention times (RRTs) of 0.978, 1.072 and 1.099 were also measured. The impurity with an RRT of 0.978 is the impurity formed by cleavage of the terminal Cys-Pro residues from the MLA01 peptide. The impurity with an RRT of 1.072 is the cysteine sulfinic acid impurity of the MLA01 peptide. The impurity with an RRT of 1.099 is the dimer of the MLA01 peptide. The values are set out in Tables 4A to 4C below (where “<” denotes less than 0.1%).

[2] = Stability of salts of MLA01 on storage: purity by HPLC; assay type: physicochemical; conditions: for course of purity over the 4 week test period (in words): −20° C., 5° C., 25° C./60% RH, 40° C./75% RH
Protocol: as §1, §2
The purity of each sample was tested by HPLC. Purity was measured as area-percent, and the results are set out in Tables 3A to 3C below (where “-” denotes test not performed).

CPAVKRDVDLFLT [MLA01 hydrochloride] (also: hydrochloride salt)
impurity RRT 0.978 (cleavage of the terminal Cys-Pro residues) ([1]; 0 weeks, −20° C.): <0.1%
impurity RRT 1.072 (cysteine sulfinic acid impurity) ([1]; 0 weeks, −20° C.): 0.1%
impurity RRT 1.099 (dimer of the MLA01 peptide) ([1]; 0 weeks, −20° C.): 0.34%
impurity RRT 0.978 (cleavage of the terminal Cys-Pro residues) ([1]; 4 weeks, 40° C./75% RH): 0.2%
impurity RRT 1.072 (cysteine sulfinic acid impurity) ([1]; 4 weeks, 40° C./75% RH): 0.2%
impurity RRT 1.099 (dimer of the MLA01 peptide) ([1]; 4 weeks, 40° C./75% RH): 0.6%
impurity RRT 0.978 (cleavage of the terminal Cys-Pro residues) ([1]; 4 weeks, −20° C.): 0.1%
impurity RRT 1.072 (cysteine sulfinic acid impurity) ([1]; 4 weeks, −20° C.): <0.1%
impurity RRT 1.099 (dimer of the MLA01 peptide) ([1]; 4 weeks, −20° C.): 0.7%
stability compared with other salt forms (in words) ([2]; 4 week storage, all conditions tested): more stable than MLA01 acetate or MLA01 trifluoroacetate
purity (HPLC) ([2]; storage 5° C., 2 weeks): 94.0 area-percent
purity (HPLC) ([2]; storage 5° C., 4 weeks): 95.7 area-percent
purity (HPLC) ([2]; storage 25° C./60% RH, 2 weeks): 94.3 area-percent
purity (HPLC) ([2]; storage 25° C./60% RH, 4 weeks): 95.5 area-percent
purity (HPLC) ([2]; storage 40° C./75% RH, 2 weeks): 92.4 area-percent
purity (HPLC) ([2]; storage 40° C./75% RH, 4 weeks): 95.3 area-percent
purity (HPLC) ([2]; storage −20° C., 0 weeks): 96.6 area-percent
purity (HPLC) ([2]; storage −20° C., 2 weeks): 94.0 area-percent
purity (HPLC) ([2]; storage −20° C., 4 weeks): 95.6 area-percent
course of purity over the 4 week test period (in words) [2]: stayed constant

CPAVKRDVDLFLT [MLA01 acetate] (also: acetate salt)
impurity RRT 0.978 (cleavage of the terminal Cys-Pro residues) ([1]; 0 weeks, −20° C.): 2.0%
impurity RRT 1.072 (cysteine sulfinic acid impurity) ([1]; 0 weeks, −20° C.): 2.5%
impurity RRT 1.099 (dimer of the MLA01 peptide) ([1]; 0 weeks, −20° C.): 1.6%
impurity RRT 0.978 (cleavage of the terminal Cys-Pro residues) ([1]; 4 weeks, 40° C./75% RH): 17.1%
impurity RRT 1.072 (cysteine sulfinic acid impurity) ([1]; 4 weeks, 40° C./75% RH): 5.9%
impurity RRT 1.099 (dimer of the MLA01 peptide) ([1]; 4 weeks, 40° C./75% RH): 12.8%
impurity RRT 0.978 (cleavage of the terminal Cys-Pro residues) ([1]; 4 weeks, −20° C.): 2.3%
impurity RRT 1.072 (cysteine sulfinic acid impurity) ([1]; 4 weeks, −20° C.): 2.8%
impurity RRT 1.099 (dimer of the MLA01 peptide) ([1]; 4 weeks, −20° C.): 2.5%
purity (HPLC) ([2]; storage 5° C., 2 weeks): 82.7 area-percent
purity (HPLC) ([2]; storage 5° C., 4 weeks): 84.2 area-percent
purity (HPLC) ([2]; storage 25° C./60% RH, 2 weeks): 75.6 area-percent
purity (HPLC) ([2]; storage 25° C./60% RH, 4 weeks): 67.2 area-percent
purity (HPLC) ([2]; storage 40° C./75% RH, 2 weeks): 54.0 area-percent
purity (HPLC) ([2]; storage 40° C./75% RH, 4 weeks): 39.4 area-percent
purity (HPLC) ([2]; storage −20° C., 0 weeks): 90.6 area-percent
purity (HPLC) ([2]; storage −20° C., 2 weeks): 84.5 area-percent
purity (HPLC) ([2]; storage −20° C., 4 weeks): 88.1 area-percent
course of purity over the 4 week test period (in words) [2]: degraded under all conditions tested

CPAVKRDVDLFLT [MLA01 trifluoroacetate] (also: trifluoroacetate salt)
impurity RRT 0.978 (cleavage of the terminal Cys-Pro residues) ([1]; 0 weeks, −20° C.): <0.1%
impurity RRT 1.072 (cysteine sulfinic acid impurity) ([1]; 0 weeks, −20° C.): <0.1%
impurity RRT 1.099 (dimer of the MLA01 peptide) ([1]; 0 weeks, −20° C.): 0.3%
impurity RRT 0.978 (cleavage of the terminal Cys-Pro residues) ([1]; 4 weeks, 40° C./75% RH): 0.9%
impurity RRT 1.072 (cysteine sulfinic acid impurity) ([1]; 4 weeks, 40° C./75% RH): 0.2%
impurity RRT 1.099 (dimer of the MLA01 peptide) ([1]; 4 weeks, 40° C./75% RH): 2.8%
impurity RRT 0.978 (cleavage of the terminal Cys-Pro residues) ([1]; 4 weeks, −20° C.): <0.1%
impurity RRT 1.072 (cysteine sulfinic acid impurity) ([1]; 4 weeks, −20° C.): <0.1%
impurity RRT 1.099 (dimer of the MLA01 peptide) ([1]; 4 weeks, −20° C.): 0.6%
purity (HPLC) ([2]; storage 5° C., 2 weeks): 95.6 area-percent
purity (HPLC) ([2]; storage 5° C., 4 weeks): 95.2 area-percent
purity (HPLC) ([2]; storage 25° C./60% RH, 2 weeks): 94.4 area-percent
purity (HPLC) ([2]; storage 25° C./60% RH, 4 weeks): 94.5 area-percent
purity (HPLC) ([2]; storage 40° C./75% RH, 2 weeks): 91.0 area-percent
purity (HPLC) ([2]; storage 40° C./75% RH, 4 weeks): 89.4 area-percent
purity (HPLC) ([2]; storage −20° C., 0 weeks): 96.7 area-percent
purity (HPLC) ([2]; storage −20° C., 2 weeks): 95.9 area-percent
purity (HPLC) ([2]; storage −20° C., 4 weeks): 95.8 area-percent
course of purity over the 4 week test period (in words) [2]: degraded at higher temperature/humidity
